According to PMC5315667 (The Plant journal : for cell and molecular biology, 2017):

Tests used:
[1] = molecular target: T1, VvEG16 (Vitis vinifera, UniProt F6I323, E88A/DEL151-151); experiment: X-ray crystallography, […] Å; format: binding; conditions: alpha-anomer, negative subsites of chain A
[2] = molecular target: T1, VvEG16; experiment: X-ray crystallography, […] Å; format: binding; conditions: negative subsites of chain A; from tXyGO mixture
[3] = molecular target: VvEG16 (Vitis vinifera, UniProt F6I323, C21S/DEL151-151/C188S); experiment: X-ray crystallography, […] Å; format: binding; conditions: co-crystallised with 5 mM; negative subsites
[4] = substrate: O=[N+]([O-])c1ccc(O[C@@H]2O[C@H](CO)[C@@H](O[C@@H]3O[C@H](CO)[C@@H](O[C@@H]4O[C@H](CO)[C@@H](O)[C@H](O)[C@H]4O)[C@H](O)[C@H]3O)[C@H](O)[C@H]2O)c(Cl)c1; experiment: chromogenic substrate hydrolysis, CNP release; format: biochemical, Vitis vinifera; conditions: 20 mM sodium citrate, pH 6, 30°C
[5] = substrate: O=[N+]([O-])c1ccc(O[C@@H]2O[C@H](CO)[C@@H](O[C@@H]3O[C@H](CO)[C@@H](O)[C@H](O)[C@H]3O)[C@H](O)[C@H]2O)c(Cl)c1; experiment: chromogenic substrate hydrolysis, CNP release; format: biochemical, Vitis vinifera; conditions: 20 mM sodium citrate, pH 6, 30°C
[6] = substrate: O=[N+]([O-])c1ccc(O[C@@H]2O[C@H](CO)[C@@H](O[C@@H]3O[C@H](CO)[C@@H](O)[C@H](O)[C@H]3O)[C@H](O)[C@H]2O)cc1; experiment: chromogenic substrate hydrolysis, PNP release; format: biochemical, Vitis vinifera; conditions: 20 mM sodium citrate, pH 6, 30°C
[7] = substrate: O=[N+]([O-])c1ccc(O[C@@H]2O[C@H](CO)[C@@H](O[C@@H]3O[C@H](CO)[C@@H](O[C@@H]4O[C@H](CO)[C@@H](O)[C@H](O)[C@H]4O)[C@H](O)[C@H]3O)[C@H](O)[C@H]2O)cc1; experiment: chromogenic substrate hydrolysis, PNP release; format: biochemical, Vitis vinifera; conditions: 20 mM sodium citrate, pH 6, 30°C
[8] = substrate: O=[N+]([O-])c1ccc(O[C@@H]2O[C@H](CO)[C@@H](O[C@@H]3O[C@H](CO)[C@@H](O[C@@H]4O[C@H](CO)[C@@H](O)[C@H](O)[C@H]4O)[C@H](O)[C@H]3O)[C@H](O)[C@H]2O)c([N+](=O)[O-])c1; experiment: purified protein; conditions: 20 mM sodium citrate, pH 6, 30°C
[9] = substrate: O=[N+]([O-])c1ccc(O[C@@H]2O[C@H](CO)[C@@H](O[C@@H]3O[C@H](CO)[C@@H](O)[C@H](O)[C@H]3O)[C@H](O)[C@H]2O)c([N+](=O)[O-])c1; experiment: purified protein; conditions: 20 mM sodium citrate, pH 6, 30°C
[10] = substrate: O=[N+]([O-])c1ccc(O[C@@H]2O[C@H](CO)[C@@H](O[C@@H]3O[C@H](CO[C@H]4OC[C@@H](O)[C@H](O)[C@H]4O)[C@@H](O[C@@H]4O[C@H](CO[C@H]5OC[C@@H](O)[C@H](O)[C@H]5O)[C@@H](O[C@@H]5O[C@H](CO[C@H]6OC[C@@H](O)[C@H](O)[C@H]6O)[C@@H](O)[C@H](O)[C@H]5O)[C@H](O)[C@H]4O)[C@H](O)[C@H]3O)[C@H](O)[C@H]2O)c(Cl)c1; experiment: chromogenic substrate hydrolysis, CNP release; format: biochemical, Vitis vinifera; conditions: 20 mM sodium citrate, pH 6, 30°C

In the case of `OC[C@H]1O[C@@H](O[C@@H]2[C@@H](O)[C@H](O[C@H]3[C@H](O)[C@@H](O)[C@H](O[C@H]4[C@H](O)[C@@H](O)C(O)O[C@@H]4CO)O[C@@H]3CO)O[C@H](CO)[C@H]2O)[C@H](O)[C@@H](O)[C@@H]1O` (stereo partly drawn) [G3GGG, β-D-Glcp-(1,3)-β-D-Glcp-(1,4)-β-D-Glcp-(1,4)-β-D-Glcp], the “X-ray crystallography, 1.65 Å” value [1] is reported as “presence of the α-anomer of G3GGG in the negative subsites”.

For `OC[C@H]1OC(O)[C@H](O)[C@@H](O)[C@@H]1O[C@@H]1O[C@H](CO[C@H]2OC[C@@H](O)[C@H](O)[C@H]2O)[C@@H](O[C@@H]2O[C@H](CO[C@H]3OC[C@@H](O)[C@H](O)[C@H]3O)[C@@H](O[C@@H]3O[C@H](CO[C@H]4OC[C@@H](O)[C@H](O)[C@H]4O)[C@@H](O)[C@H](O)[C@H]3O)[C@H](O)[C@H]2O)[C@H](O)[C@H]1O` (stereo partly drawn) [XXXG], the “X-ray crystallography, 1.79 Å” value [2] was “Chain A additionally contained an apparent XXXG moiety in the negative subsites” and the “X-ray crystallography, 1.59 Å” value [3] was “Fortuitous crystallization of this variant in complex with the heptasaccharide XXXG in the negative subsites”.

B1: VvEG16 (Vitis vinifera; DEL151-151) (protein)
chain: MADPSLHHEAQPLKFIAVDYCPESCTHSPESSTITLTFDHRGGSRWRSTTRFQYGTFSSLIQCPKGNTSGLNFNIYLSSLEGDKSQDEIDFEFLGKDKRIVQTNYYTAGTGNREAIHDLGFDCSDGFHEYVIKWGPDLIQWLIDGKVIRSVRADGEGFPQKPMFLYASVWDASYIDEGRWTGPYVGCDAPYICLYKNVNVPVGTAVE
Molecule B1 has a Km [4] of 1100 ± 100 µM, a kcat [4] of 0.0172 ± 0.000667 s⁻¹ and a kcat/Km [4] of 16 M⁻¹ s⁻¹. The Km [5] was 3500 ± 400 µM, the kcat [5] was 0.0075 ± 0.000333 s⁻¹ and the kcat/Km [5] was 2.1 M⁻¹ s⁻¹. For the same molecule, the Km [6] was 5900 ± 600 µM, the kcat [6] was 0.000383 ± 3.33e-05 s⁻¹ and the kcat/Km [6] was 0.065 M⁻¹ s⁻¹. The Km [7] was 2800 ± 200 µM, the kcat [7] was 0.0025 ± 0.0001 s⁻¹ and the kcat/Km [7] was 0.9 M⁻¹ s⁻¹. The Km [8] was 800 ± 60 µM, the kcat [8] was 1.58 ± 0.0333 s⁻¹ and the kcat/Km [8] was 2000 M⁻¹ s⁻¹. For the same molecule, the Km [9] was 2000 ± 200 µM, the kcat [9] was 0.333 ± 0.0167 s⁻¹ and the kcat/Km [9] was 170 M⁻¹ s⁻¹.

B2: VvEG16 (Vitis vinifera) (protein)
chain: MADPSLHHEAQPLKFIAVDYCPESCTHSPESSTITLTFDHRGGSRWRSTTRFQYGTFSSLIQCPKGNTSGLNFNIYLSSLEGDKSQDEIDFEFLGKDKRIVQTNYYTAGTGNREAIHDLGFDCSDGFHEYVIKWGPDLIQWLIDGKVIRSVVRADGEGFPQKPMFLYASVWDASYIDEGRWTGPYVGCDAPYICLYKNVNVPVGTAVE
B2 gave a Km [4] of 800 ± 100 µM, a kcat [4] of 0.0163 ± 0.0005 s⁻¹ and a kcat/Km [4] of 20 M⁻¹ s⁻¹. The Km [10] was 1100 ± 300 µM, the kcat [10] was 0.2 ± 0.00833 s⁻¹ and the kcat/Km [10] was 180 M⁻¹ s⁻¹.
